For series [1], the system named is T1, Dcd_PhiR1‐37.
T1 construct: gene Dcd; recombinant from codon-optimized synthetic gene in HMT plasmid, N-terminal His6-MBP tag, amylose column, E. coli
The series can be described thus: UV absorbance at […] nm, deamination. Type of series: biochemical, Yersinia phage phiR1-37. The note with it: Mg2+ (table; methods text says 2 mM Mn2+), 50 mM Tris-HCl pH 7.5, room temperature; read-out: kinetic parameters.

Series [2] addresses T2, Dcd_PBS1 (Bacillus phage PBS1, UniProt A0A223LD31).
T2 construct: gene 112; recombinant from codon-optimized synthetic gene in HMT plasmid, N-terminal His6-MBP tag, amylose column, E. coli
T2 sequence (A0A223LD31 1-176): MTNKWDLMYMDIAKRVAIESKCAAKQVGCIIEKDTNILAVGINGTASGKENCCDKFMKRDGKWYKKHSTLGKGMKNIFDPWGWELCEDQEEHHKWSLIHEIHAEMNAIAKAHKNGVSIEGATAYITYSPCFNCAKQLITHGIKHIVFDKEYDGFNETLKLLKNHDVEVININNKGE
The experiment in a line: inhibition of dCTP deamination (details in supplement). Type of series: biochemical. Particulars: inhibitor (negative regulation); also the reaction product.

The test system of series [3] is T3, Dtt_PhiR1‐37.
T3 construct: gene Dtt; recombinant from codon-optimized synthetic gene in HMT plasmid, N-terminal His6-MBP tag, amylose column, E. coli
The series can be described thus: phosphomolybdate phosphate release, coupled inorganic pyrophosphatase IPP1. Type of series: biochemical, Yersinia phage phiR1-37. Particulars: 2 mM Mg2+, 50 mM Tris-HCl pH 7.5, room temperature; read-out: kinetic parameters. From the text: phosphomolybdate phosphate release, coupled inorganic pyrophosphatase IPP1 on Dtt_PhiR1‐37

Substrate in series [4]: Nc1ccn([C@H]2C[C@H](O)[C@@H](COP(=O)(O)O)O2)c(=O)n1
The series can be described thus: purified protein. Particulars: 2 mM Mn2+, 50 mM Tris-HCl pH 7.5, room temperature. The format is biochemical, Bacteriophage DSS3_VP1.

Substrate in series [5]: Nc1ccn([C@H]2C[C@H](O)[C@@H](COP(=O)(O)OP(=O)(O)O)O2)c(=O)n1
The experiment in a line: purified protein. Type of series: biochemical, Bacteriophage DSS3_VP1. Particulars: 2 mM Mn2+, 50 mM Tris-HCl pH 7.5, room temperature.

Substrate in series [6]: Nc1ccn([C@H]2C[C@H](O)[C@@H](COP(=O)(O)OP(=O)(O)OP(=O)(O)O)O2)c(=O)n1
The experiment in a line: purified protein. The format is biochemical, Bacteriophage DSS3_VP1. The note with it: 2 mM Mn2+, 50 mM Tris-HCl pH 7.5, room temperature.

Substrate in series [7]: Nc1ccn([C@H]2C[C@H](O)[C@@H](COP(=O)(O)OP(=O)(O)OP(=O)(O)O)O2)c(=O)n1
The experiment in a line: purified protein. Type of series: biochemical, Bacillus phage PBS1. Particulars: 2 mM Mn2+, 50 mM Tris-HCl pH 7.5, room temperature.

Substrate in series [8]: O=c1ccn([C@H]2C[C@H](O)[C@@H](COP(=O)(O)O)O2)c(=O)[nH]1
The series can be described thus: phosphomolybdate phosphate release. Type of series: biochemical, Bacteriophage DSS3_VP1. Particulars: 2 mM Co2+, 50 mM Tris-HCl pH 7.5, room temperature. An excerpt: (§1) phosphomolybdate phosphate release on Dtm_DSS3_VP1

Substrate in series [9]: Cc1cn([C@H]2C[C@H](O)[C@@H](COP(=O)(O)O)O2)c(=O)[nH]c1=O
The experiment in a line: phosphomolybdate phosphate release. Type of series: biochemical, Bacteriophage DSS3_VP1. Particulars: 2 mM Co2+, 50 mM Tris-HCl pH 7.5, room temperature.
Text: as §1

Substrate in series [10]: Nc1ccn([C@H]2C[C@H](O)[C@@H](COP(=O)(O)O)O2)c(=O)n1
The experiment in a line: purified protein. The format is biochemical, Exiguobacterium artemiae. Particulars: Co2+ is best metal (methods text for kinetics says 2 mM Mn2+), 50 mM Tris-HCl pH 7.5, room temperature.

Substrate in series [11]: Nc1ccn([C@H]2C[C@H](O)[C@@H](COP(=O)(O)OP(=O)(O)O)O2)c(=O)n1
The experiment in a line: purified protein. Type of series: biochemical, Exiguobacterium artemiae. The note with it: Co2+ is best metal (methods text for kinetics says 2 mM Mn2+), 50 mM Tris-HCl pH 7.5, room temperature.

Substrate in series [12]: Nc1ccn([C@H]2C[C@H](O)[C@@H](COP(=O)(O)OP(=O)(O)OP(=O)(O)O)O2)c(=O)n1
The experiment in a line: purified protein. Particulars: Co2+ is best metal (methods text for kinetics says 2 mM Mn2+), 50 mM Tris-HCl pH 7.5, room temperature. Type of series: biochemical, Exiguobacterium artemiae.

Substrate in series [13]: Nc1ccn([C@H]2C[C@H](O)[C@@H](COP(=O)(O)O)O2)c(=O)n1
The experiment in a line: purified protein. Type of series: biochemical, Sulfurimonas gotlandica. The note with it: 2 mM Mn2+, 50 mM Tris-HCl pH 7.5, room temperature.

Substrate in series [14]: Nc1ccn([C@H]2C[C@H](O)[C@@H](COP(=O)(O)OP(=O)(O)O)O2)c(=O)n1
The experiment in a line: purified protein. Type of series: biochemical, Sulfurimonas gotlandica. Particulars: 2 mM Mn2+, 50 mM Tris-HCl pH 7.5, room temperature.

Substrate in series [15]: Nc1ccn([C@H]2C[C@H](O)[C@@H](COP(=O)(O)OP(=O)(O)OP(=O)(O)O)O2)c(=O)n1
The experiment in a line: purified protein. Type of series: biochemical, Sulfurimonas gotlandica. Particulars: 2 mM Mn2+, 50 mM Tris-HCl pH 7.5, room temperature.

Substrate in series [16]: Cc1cn([C@H]2C[C@H](O)[C@@H](COP(=O)(O)O)O2)c(=O)[nH]c1=O
The series can be described thus: phosphomolybdate phosphate release. The format is biochemical, Bacillus phage PBS1. Particulars: Mg2+ (table; methods text says 2 mM Co2+), 50 mM Tris-HCl pH 7.5, room temperature. An excerpt: phosphomolybdate phosphate release on Dtm_PBS1

Here are results for ten molecules from PMC12697855, “Distinct Phage‐Encoded Enzymes for Substitution of Deoxythymidine by Deoxyuridine in Phage Genomes” (Advanced Science, 2025).

Usually kcat stands for the number of substrate molecules converted per active site and unit of time at saturation.

`Nc1ccn([C@H]2C[C@H](O)[C@@H](COP(=O)(O)OP(=O)(O)OP(=O)(O)O)O2)c(=O)n1` [dCTP]: the Km in [1] was determined as 117 ± 31 µM.

On to `O=c1ccn([C@H]2C[C@H](O)[C@@H](COP(=O)(O)OP(=O)(O)OP(=O)(O)O)O2)c(=O)[nH]1` [dUTP], for which the “inhibition of dCTP deamination (details in supplement)” value in series [2] is listed as “Bacillus phage PBS1 Dcd is negatively regulated by dUTP (Figure S9, Supporting Information)”. Moreover, in [3], the Km stood at 145 ± 16 µM.

With `Nc1nc2c(ncn2[C@H]2C[C@H](O)[C@@H](COP(=O)(O)OP(=O)(O)OP(=O)(O)O)O2)c(=O)[nH]1` [dGTP], the Km in series [3] was found to be 440 ± 110 µM.

As to `Cc1cn([C@H]2C[C@H](O)[C@@H](COP(=O)(O)OP(=O)(O)OP(=O)(O)O)O2)c(=O)[nH]c1=O` [dTTP], the Km in series [3] was 108 ± 11 µM.

B1: Dcd_DSS3_VP1 (Bacteriophage DSS3_VP1) (protein)
chain: MHSWDKRFMEMAELVASWSKDPRTKVGCVLADSKHRVLGVGYNGFPRGVNDRDDRYANREVKLAMVKHAEENAVFNAAKHDLSDAVAYVTLAPCSSCAGTLIQAGVRRVVFPEPDPEHMTRHYGNYELMLQMLSEARVLKSVITKEGVIK
notes: recombinant from codon-optimized synthetic gene in HMT plasmid, N-terminal His6-MBP tag, amylose column, E. coli
For the molecule B1, the Km in series [4] is 257 ± 55 µM; in [5], 144 ± 44 µM; in series [6] it was 114 ± 22 µM. Also, the kcat in series [4] stood at 1 ± 0.1 s⁻¹; in [5] it was 5.6 ± 0.8 s⁻¹; in [6] it was 8.9 ± 0.7 s⁻¹.

B2: Dcd_PBS1 (Bacillus phage PBS1) (protein)
chain: MTNKWDLMYMDIAKRVAIESKCAAKQVGCIIEKDTNILAVGINGTASGKENCCDKFMKRDGKWYKKHSTLGKGMKNIFDPWGWELCEDQEEHHKWSLIHEIHAEMNAIAKAHKNGVSIEGATAYITYSPCFNCAKQLITHGIKHIVFDKEYDGFNETLKLLKNHDVEVININNKGE
notes: as for B1
As for B2, in [7], the Km was 137 ± 23 µM and the catalytic constant (kcat) was 15.4 ± 1 s⁻¹.

B3: Dtm_DSS3_VP1 (Bacteriophage DSS3_VP1) (protein)
chain: MCNEKIALGYELYTSGYVNRYHSHPHPHLRNAQDLTDAHSNRMVKLLYLFFPELAHRGTLVAYIVMHDAGESASGDSPFTAKIANPKLKEALDEVEGQRLAQFYGLFQNDLRIDLTQKEENVVKLLDLLESFLFQAIHAPGRMDEEHHLFQNIEKRARELEVYPEVRCMMMHALHRNNAATKGY
notes: as for B1
On to B3, for which, in series [8], the Km is 170 ± 15 µM and the kcat was found to be 1 ± 0.1 s⁻¹. Moreover, in [9], the Km was 22 ± 4 µM and the kcat was 3.1 ± 0.1 s⁻¹.

B4: E. sibiricum cytidine nucleotide deaminase (Exiguobacterium artemiae 255-15) (protein)
chain: MMKKQHQWDTTWLLFARMMADRHSKCASKSVACVIVKDEKPISIGINGTPSQHVNCNEIYLKQDNILYKAEAERQQEKADALSIVHNGQVFYRCDNQEEHHEWSKMNEIHAEINALGKLAADSTSARHATAYVTHSPCHACSLALIASKIDRVVYSTGYEYGDGLTLMRQSEIEVLHRPLTEEYFLERIFDKDL
notes: as for B1
Turning to B4, the Km was 415 ± 143 µM in series [10], 179 ± 31 µM in series [11] and 186 ± 35 µM in series [12]. The kcat in series [10] was 0.05 ± 0.01 s⁻¹; in series [11] it was 21.2 ± 1.9 s⁻¹; in series [12] it was 0.9 ± 0.1 s⁻¹.

B5: S. gotlandica cytidine nucleotide deaminase (Sulfurimonas gotlandica GD1) (protein)
chain: MLSDQNFINIAQELATASKCVSKQVGAVIVKDGRILSTGYNGTPAGFTNCCDHWNGEYTPDHHEWSKTYEIHAEMNAIIWAARKGISIEGASIFVTLEPCSECSKNLIASGIKRIVYAKEYEHTHSDTISKFIKDNGVSIEQLAPKV
notes: as for B1
With B5, the Km in [13] turned out to be 661 ± 178 µM; in series [14], 271 ± 90 µM; in series [15], 293 ± 88 µM. In addition, the kcat in series [13] turned out to be 0.28 ± 0.05 s⁻¹; in series [14], 0.5 ± 0.1 s⁻¹; in series [15] it was 0.06 ± 0.01 s⁻¹.

B6: Dtm_PBS1 (Bacillus phage PBS1) (protein)
chain: MFSIKEPFSIVTDCDEVLTDISPLWVHKIQQNADYFGKYFDLSKLEGLEFGTFEHYQTVLSRPEFHLNKWLRKENLVLSDEEEKELFERFYSLYDNDEFYEDCMPTKMCEGIYKLSLQKFVDKIYVVTRTSEGTKEGKRKFIETFLNSNKVEIIFVGKNEKKSDYIKNLKNVKMIVEDELSNINDIVENCNDGFEEVDIYIPSTGYNNKDIDGFNENLMKKGFNAVPYVIIERPETEEKAV
notes: recombinant from pCold TF, E. coli BL21(DE3), N-terminal His6-Trigger factor-TEV site tag, Ni-NTA; tag kept
Regarding B6, in series [16], the Km was determined as 42 ± 8 µM and the kcat worked out at 0.0317 ± 0.0017 s⁻¹.
